Laboratory results: patent US9284543B2, “Neutral active soluble truncated PH20 polypeptides and uses thereof” (Halozyme, Inc., priority 2008, dated 2016)

Assays:
[1] = Hyaluronidase activity of N-glycan site specific deglycosylation mutants (biotinylated-HA assay); type: biochemical; details: media of transfected CHO-S cells
Protocol: In short, a 4×BH 96-well plate was coated with biotinylated-HA (1.1 MDa). The 72 hour post transfection supernatant from cells transfected with human PH20 hyaluronidase carboxy-terminus deletion mutants was diluted in buffer at either pH 7.4 or pH 5.5 and added to individual wells of the plate and allowed to incubate at 37° C. for 90 minutes. The reaction was terminated by addition of 4M guanidine HCl. The wells were washed 4× with Phosphate Buffered Saline with Tween20 (PBST) to remove any digested biotinylated-HA followed by addition of streptavidin-HRP for 1 hour at room temperature. The wells were washed 4× with PBST and the plate was developed with TMB. The plate was read at 450 nm using an ELISA plate reader. Hyaluronidase activity (in Units/mL) was determined by interpolating the measured absorbance at 450 nm with a hyaluronidase reference standard curve. Full length mature human PH20 hyaluronidase and untransfected CHO cells were used as positive and negative controls.
PH20sHis (SEQ ID NO:210) was used as a template for mutagenesis of each asparagine residue to alanine using QuikChange® Site-Directed Mutagenesis Kit (Cat No. 200518, Stratagene). […] Six single mutants were generated, one for each of the N-glycosylation sites. Additionally, three double mutants and a triple mutant were generated for asparagines N82, N166 and N254, all of which are occupied by complex type glycans. Finally, a double mutant N368A/N393A was generated, lacking high mannose glycans. The mutants were transfected into CHO—S cells and expression was performed as described in Example 2A. Secretion into the media and hyaluronidase activity were determined as described in Examples 3 and 5, above.

CHO-S cells = assay: Western blot analysis of PH20 expression in media and cells after transient expression; type: cell-based, Chinese Hamster; details: media versus cells
Procedure, shortened: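 CHO-S cells were transiently transfected with mutant PH20-HZ24 plasmids using GeneJuice and expressed for 48-72 h at 37 °C, 5% CO2. Media and cells were harvested separately, with PI-PLC treatment used to release GPI-anchored protein. Non-reduced samples were blotted with rabbit anti-PH20 (0.5 μg/mL), and a band near 66 kDa was scored as PH20.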

[2] = Microtiter hyaluronidase activity assay with biotinylated-hyaluronic acid; type: biochemical; details: Table 6, 72 hour post transfection supernatant

Activity pH 5.5 [1] | Activity pH 7.4 [1] | pH 5.5 Activity ([2]; pH 5.5) [Units/ml] | pH 7.4 Activity ([2]; pH 7.4) [Units/ml] | Molecule | Expressed in Media (CHO-S cells)
YES | YES | – | – | N254A: PH20sHis N-glycosylation site mutant N254A, SEQ ID NO:205 (protein, His tag; PH20sHis N254A) MGVLKFKHIFFRSFVKSSGVSQIVFTFLLIPCCLTLNFRAPPVIPNVPFLWAWNAPSEFCLGKFDEPLDMSLFSFIGSPRINATGQGVTIFYVDRLGYYPYIDSITGVTVNGGIPQKISLQDHLDKAKKDITFYMPVDNLGMAVIDWEEWRPTWARNWKPKDVYKNRSIELVQQQNVQLSLTEATEKAKQEFEKAGKDFLVETIKLGKLLRPNHLWGYYLFPDCYNHHYKKPGYNGSCFNVEIKRNDDLSWLWAESTALYPSIYLNTQQSPVAATLYVRNRVREAIRVSKIPDAKSPLPVFAYTRIVFTDQVLKFLSQDELVYTFGETVALGASGIVIWGTLSIMRSMKSCLLLDNYMETILNPYIINVTLAAKMCSQVLCQEQGVCIRKNWNSSDYLHLNPDNFAIQLEKGGKFTVRGKPTLEDLEQFSEKFYCSCYSTLSCKEKADVKDTDAVDVCIADGVCIDAFLKPPMETEEPQIFYNASPSTLSHHHHHH | –
YES | YES | – | – | N82A/N254A: PH20sHis double mutant, SEQ ID NO:207 (protein, His tag; PH20sHis N82A/N254A) MGVLKFKHIFFRSFVKSSGVSQIVFTFLLIPCCLTLNFRAPPVIPNVPFLWAWNAPSEFCLGKFDEPLDMSLFSFIGSPRIAATGQGVTIFYVDRLGYYPYIDSITGVTVNGGIPQKISLQDHLDKAKKDITFYMPVDNLGMAVIDWEEWRPTWARNWKPKDVYKNRSIELVQQQNVQLSLTEATEKAKQEFEKAGKDFLVETIKLGKLLRPNHLWGYYLFPDCYNHHYKKPGYNGSCFNVEIKRNDDLSWLWAESTALYPSIYLNTQQSPVAATLYVRNRVREAIRVSKIPDAKSPLPVFAYTRIVFTDQVLKFLSQDELVYTFGETVALGASGIVIWGTLSIMRSMKSCLLLDNYMETILNPYIINVTLAAKMCSQVLCQEQGVCIRKNWNSSDYLHLNPDNFAIQLEKGGKFTVRGKPTLEDLEQFSEKFYCSCYSTLSCKEKADVKDTDAVDVCIADGVCIDAFLKPPMETEEPQIFYNASPSTLSHHHHHH | –
YES | YES | – | – | N82A/N166A/N254A: PH20sHis triple mutant, SEQ ID NO:209 (protein, His tag; PH20sHis N82A/N166A/N254A) MGVLKFKHIFFRSFVKSSGVSQIVFTFLLIPCCLTLNFRAPPVIPNVPFLWAWNAPSEFCLGKFDEPLDMSLFSFIGSPRIAATGQGVTIFYVDRLGYYPYIDSITGVTVNGGIPQKISLQDHLDKAKKDITFYMPVDNLGMAVIDWEEWRPTWARNWKPKDVYKARSIELVQQQNVQLSLTEATEKAKQEFEKAGKDFLVETIKLGKLLRPNHLWGYYLFPDCYNHHYKKPGYNGSCFNVEIKRNDDLSWLWAESTALYPSIYLNTQQSPVAATLYVRNRVREAIRVSKIPDAKSPLPVFAYTRIVFTDQVLKFLSQDELVYTFGETVALGASGIVIWGTLSIMRSMKSCLLLDNYMETILNPYIINVTLAAKMCSQVLCQEQGVCIRKNWNSSDYLHLNPDNFAIQLEKGGKFTVRGKPTLEDLEQFSEKFYCSCYSTLSCKEKADVKDTDAVDVCIADGVCIDAFLKPPMETEEPQIFYNASPSTLSHHHHHH | –
YES | YES | – | – | N166A/N254A: PH20sHis double mutant, SEQ ID NO:208 (protein, His tag; PH20sHis N166A/N254A) MGVLKFKHIFFRSFVKSSGVSQIVFTFLLIPCCLTLNFRAPPVIPNVPFLWAWNAPSEFCLGKFDEPLDMSLFSFIGSPRINATGQGVTIFYVDRLGYYPYIDSITGVTVNGGIPQKISLQDHLDKAKKDITFYMPVDNLGMAVIDWEEWRPTWARNWKPKDVYKARSIELVQQQNVQLSLTEATEKAKQEFEKAGKDFLVETIKLGKLLRPNHLWGYYLFPDCYNHHYKKPGYNGSCFNVEIKRNDDLSWLWAESTALYPSIYLNTQQSPVAATLYVRNRVREAIRVSKIPDAKSPLPVFAYTRIVFTDQVLKFLSQDELVYTFGETVALGASGIVIWGTLSIMRSMKSCLLLDNYMETILNPYIINVTLAAKMCSQVLCQEQGVCIRKNWNSSDYLHLNPDNFAIQLEKGGKFTVRGKPTLEDLEQFSEKFYCSCYSTLSCKEKADVKDTDAVDVCIADGVCIDAFLKPPMETEEPQIFYNASPSTLSHHHHHH | –
YES | YES | – | – | N82A/N166A: PH20sHis double mutant, SEQ ID NO:206 (protein, His tag; PH20sHis N82A/N166A) MGVLKFKHIFFRSFVKSSGVSQIVFTFLLIPCCLTLNFRAPPVIPNVPFLWAWNAPSEFCLGKFDEPLDMSLFSFIGSPRIAATGQGVTIFYVDRLGYYPYIDSITGVTVNGGIPQKISLQDHLDKAKKDITFYMPVDNLGMAVIDWEEWRPTWARNWKPKDVYKARSIELVQQQNVQLSLTEATEKAKQEFEKAGKDFLVETIKLGKLLRPNHLWGYYLFPDCYNHHYKKPGYNGSCFNVEIKRNDDLSWLWNESTALYPSIYLNTQQSPVAATLYVRNRVREAIRVSKIPDAKSPLPVFAYTRIVFTDQVLKFLSQDELVYTFGETVALGASGIVIWGTLSIMRSMKSCLLLDNYMETILNPYIINVTLAAKMCSQVLCQEQGVCIRKNWNSSDYLHLNPDNFAIQLEKGGKFTVRGKPTLEDLEQFSEKFYCSCYSTLSCKEKADVKDTDAVDVCIADGVCIDAFLKPPMETEEPQIFYNASPSTLSHHHHHH | –
– | – | 2.79 | 3.321 | SPAM1-FLKP: C-terminally truncated human PH20, precursor 471 aa (SEQ ID NO:29), mature 436 aa (SEQ ID NO:81) (protein, listed as Homo sapiens, HuPH20 precursor 1-471; Mature HuPH20 36-471) chain 1: MGVLKFKHIFFRSFVKSSGVSQIVFTFLLIPCCLTLNFRAPPVIPNVPFLWAWNAPSEFCLGKFDEPLDMSLFSFIGSPRINATGQGVTIFYVDRLGYYPYIDSITGVTVNGGIPQKISLQDHLDKAKKDITFYMPVDNLGMAVIDWEEWRPTWARNWKPKDVYKNRSIELVQQQNVQLSLTEATEKAKQEFEKAGKDFLVETIKLGKLLRPNHLWGYYLFPDCYNHHYKKPGYNGSCFNVEIKRNDDLSWLWNESTALYPSIYLNTQQSPVAATLYVRNRVREAIRVSKIPDAKSPLPVFAYTRIVFTDQVLKFLSQDELVYTFGETVALGASGIVIWGTLSIMRSMKSCLLLDNYMETILNPYIINVTLAAKMCSQVLCQEQGVCIRKNWNSSDYLHLNPDNFAIQLEKGGKFTVRGKPTLEDLEQFSEKFYCSCYSTLSCKEKADVKDTDAVDVCIADGVCIDAFLKP chain 2: LNFRAPPVIPNVPFLWAWNAPSEFCLGKFDEPLDMSLFSFIGSPRINATGQGVTIFYVDRLGYYPYIDSITGVTVNGGIPQKISLQDHLDKAKKDITFYMPVDNLGMAVIDWEEWRPTWARNWKPKDVYKNRSIELVQQQNVQLSLTEATEKAKQEFEKAGKDFLVETIKLGKLLRPNHLWGYYLFPDCYNHHYKKPGYNGSCFNVEIKRNDDLSWLWNESTALYPSIYLNTQQSPVAATLYVRNRVREAIRVSKIPDAKSPLPVFAYTRIVFTDQVLKFLSQDELVYTFGETVALGASGIVIWGTLSIMRSMKSCLLLDNYMETILNPYIINVTLAAKMCSQVLCQEQGVCIRKNWNSSDYLHLNPDNFAIQLEKGGKFTVRGKPTLEDLEQFSEKFYCSCYSTLSCKEKADVKDTDAVDVCIADGVCIDAFLKP | YES
